Results as given in PMC7209288.

Key:
human C5 = experiment: SPR; fit not_stated; antibody as IgG; antigen as monomer; on the surface: not_stated; avidity not_told; conditions: pH 7.4; second pH 6.0
[1] = target: Complement component C5 (human, wild type) (UniProt P01031); experiment: SPR (Biacore); conditions: for t1/2 ratio pH7.4/pH6.0: pH 6.0-7.4, not stated (pH 7.4 and pH 6.0 compared); for KD / T1/2 (half-life of the complex): pH 7.4, 25 °C, not stated for this experiment (the 37 °C screen used 150 mM NaCl), not stated explicitly for the 25 °C runs, pH 7.4 (the 37 °C screen used HBS-EP: 10 mM Hepes)
[2] = target: Complement component C5 (human, wild type) (UniProt P01031); experiment: SPR (Biacore T200, CM4 chip); conditions: pH 7.4, 37 °C, 150 mM NaCl, HBS-EP: 10 mM Hepes

Sequence of UniProt P01031 (P01031 whole entry): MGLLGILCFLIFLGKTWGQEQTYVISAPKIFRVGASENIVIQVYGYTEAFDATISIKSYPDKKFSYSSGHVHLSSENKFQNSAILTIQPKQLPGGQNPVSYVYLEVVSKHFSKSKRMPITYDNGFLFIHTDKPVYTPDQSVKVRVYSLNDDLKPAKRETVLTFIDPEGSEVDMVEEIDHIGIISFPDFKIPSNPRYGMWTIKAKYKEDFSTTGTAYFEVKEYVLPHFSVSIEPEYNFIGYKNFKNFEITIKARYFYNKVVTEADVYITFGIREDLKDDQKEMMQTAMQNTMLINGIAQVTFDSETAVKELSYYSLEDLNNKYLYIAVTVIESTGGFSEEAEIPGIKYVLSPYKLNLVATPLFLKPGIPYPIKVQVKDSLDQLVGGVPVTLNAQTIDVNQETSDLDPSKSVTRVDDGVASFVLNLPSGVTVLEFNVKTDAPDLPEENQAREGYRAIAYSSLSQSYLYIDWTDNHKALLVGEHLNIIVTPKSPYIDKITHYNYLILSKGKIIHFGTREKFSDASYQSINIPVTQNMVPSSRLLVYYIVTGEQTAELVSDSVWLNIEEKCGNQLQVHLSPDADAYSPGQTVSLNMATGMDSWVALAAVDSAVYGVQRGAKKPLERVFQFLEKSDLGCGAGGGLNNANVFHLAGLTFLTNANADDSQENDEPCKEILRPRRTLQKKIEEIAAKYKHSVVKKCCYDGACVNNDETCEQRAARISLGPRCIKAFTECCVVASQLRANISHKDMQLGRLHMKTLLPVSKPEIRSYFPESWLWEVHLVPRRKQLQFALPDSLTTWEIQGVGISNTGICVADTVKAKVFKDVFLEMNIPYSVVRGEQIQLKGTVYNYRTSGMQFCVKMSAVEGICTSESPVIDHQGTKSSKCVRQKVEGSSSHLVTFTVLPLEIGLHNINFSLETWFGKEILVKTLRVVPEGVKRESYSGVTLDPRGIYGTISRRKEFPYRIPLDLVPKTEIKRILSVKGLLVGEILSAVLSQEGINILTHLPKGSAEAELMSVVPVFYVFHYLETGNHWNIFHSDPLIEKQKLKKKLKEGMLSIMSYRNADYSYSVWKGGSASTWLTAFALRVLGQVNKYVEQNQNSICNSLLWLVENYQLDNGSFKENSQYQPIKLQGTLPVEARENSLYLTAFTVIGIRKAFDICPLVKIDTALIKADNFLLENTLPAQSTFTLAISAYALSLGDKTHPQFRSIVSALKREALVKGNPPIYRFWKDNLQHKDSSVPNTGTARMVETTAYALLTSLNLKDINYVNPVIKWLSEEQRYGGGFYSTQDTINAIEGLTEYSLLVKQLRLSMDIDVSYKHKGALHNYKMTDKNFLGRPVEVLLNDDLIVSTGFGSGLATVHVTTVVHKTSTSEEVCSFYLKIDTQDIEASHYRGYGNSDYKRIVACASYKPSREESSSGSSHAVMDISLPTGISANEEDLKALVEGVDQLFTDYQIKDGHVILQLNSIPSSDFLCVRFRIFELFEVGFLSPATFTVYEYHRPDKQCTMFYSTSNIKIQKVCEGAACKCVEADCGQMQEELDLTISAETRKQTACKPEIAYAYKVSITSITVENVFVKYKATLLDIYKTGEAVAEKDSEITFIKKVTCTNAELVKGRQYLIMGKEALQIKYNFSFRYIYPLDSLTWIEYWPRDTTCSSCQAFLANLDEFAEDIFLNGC

Row | Substance | t1/2 ratio of binding hC5 at pH7.4/pH6.0 (human C5) | t1/2 ratio pH7.4/pH6.0 [1] | KD [1] | T1/2 (half-life of the complex) [1] | KD [2] | T1/2 (half-life of the complex) [2]
1 | In-house eculizumab | 5.2 |  |  |  |  | 
2 | In-house eculizumab, anti-human C5 monoclonal antibody |  | t1/2 ratio of binding hC5 at pH7.4/pH6.0 = 5.2 | 0.301 nM | 1.72 h |  | 
3 | REGN3918 | 3.8 |  |  |  |  | 
4 | REGN3918 (pozelimab), anti-human C5 monoclonal antibody S228P (EU numbering, IgG4 hinge) |  | t1/2 ratio of binding hC5 at pH7.4/pH6.0 = 3.8 | 0.189 nM | 1.03 h | 0.262 nM | 0.833 h
